Laboratory results taken from the Immune Epitope Database (IEDB).
pKd: −log10 of the molar value. Blank lines part the entries; values can stand above or below the sequence they belong to.

How the values were obtained:
HLA-B*40:01 = test: IEDB peptide-MHC binding, purified MHC/competitive/fluorescence; filed as Kd, often an IC50 or EC50 that approximates it; ≥ and ≤ were set here for values at or beyond the usual limits of such assays
HLA-A*03:01 [1] = test: as above; settings: source organism: Homo sapiens
HLA-A*26:01 = test: as above
HLA-A*02:01 = test: as above
HLA-B*27:03 = test: as above
HLA-B*46:01 = test: as above
HLA-B*15:17 = test: as above
HLA-A*69:01 = test: as above
HLA-A*02:16 [2] = test: as above; settings: source organism: Homo sapiens
HLA-A*01:01 = test: as above
HLA-A*02:12 [3] = test: as above; settings: source organism: Homo sapiens
HLA-A*02:03 [4] = test: as above; settings: source organism: Homo sapiens
HLA-A*02:19 [5] = test: as above; settings: source organism: Homo sapiens
HLA-A*29:02 [6] = test: as above; settings: source organism: Homo sapiens
HLA-A*24:03 [7] = test: as above; settings: source organism: Homo sapiens
HLA-B*51:01 = test: as above
HLA-A*02:11 [8] = test: as above; settings: source organism: Homo sapiens
HLA-A*68:02 [9] = test: as above; settings: source organism: Homo sapiens
HLA-B*39:01 = test: as above
HLA-B*15:01 [10] = test: as above
HLA-B*08:03 = test: IEDB peptide-MHC binding, purified MHC/direct/fluorescence; filed as Kd, often an IC50 or EC50 that approximates it; ≥ and ≤ were set here for values at or beyond the usual limits of such assays; settings: source organism: Listeria monocytogenes serotype 4b str. H7858
HLA-B*08:02 = test: as above; settings: source organism: Listeria monocytogenes serotype 4b str. H7858
HLA-B*08:01 [11] = test: as above; settings: source organism: Listeria monocytogenes serotype 4b str. H7858
HLA-B*35:01 = test: IEDB peptide-MHC binding, purified MHC/competitive/fluorescence; filed as Kd, often an IC50 or EC50 that approximates it; ≥ and ≤ were set here for values at or beyond the usual limits of such assays
HLA-B*15:01 [12] = test: IEDB peptide-MHC binding, purified MHC/direct/fluorescence; filed as Kd, often an IC50 or EC50 that approximates it; ≥ and ≤ were set here for values at or beyond the usual limits of such assays; settings: source organism: Mycobacterium tuberculosis variant bovis
HLA-B*57:01 = test: IEDB peptide-MHC binding, purified MHC/competitive/fluorescence; filed as Kd, often an IC50 or EC50 that approximates it; ≥ and ≤ were set here for values at or beyond the usual limits of such assays; settings: source organism: Orthohantavirus tulaense
HLA-B*18:01 = test: as above; settings: source organism: Orthohantavirus tulaense
HLA-A*03:01 [13] = test: IEDB peptide-MHC binding, purified MHC/direct/fluorescence; filed as Kd, often an IC50 or EC50 that approximates it; ≥ and ≤ were set here for values at or beyond the usual limits of such assays; settings: source organism: Orthohantavirus tulaense
HLA-A*02:16 [14] = test: as above; settings: source organism: Orthohantavirus tulaense
HLA-A*02:12 [15] = test: as above; settings: source organism: Orthohantavirus tulaense
HLA-A*02:03 [16] = test: as above; settings: source organism: Orthohantavirus tulaense
HLA-A*02:19 [17] = test: as above; settings: source organism: Orthohantavirus tulaense
HLA-A*29:02 [18] = test: as above; settings: source organism: Orthohantavirus tulaense
HLA-A*24:03 [19] = test: as above; settings: source organism: Orthohantavirus tulaense
HLA-A*02:11 [20] = test: as above; settings: source organism: Orthohantavirus tulaense
HLA-A*68:02 [21] = test: as above; settings: source organism: Orthohantavirus tulaense
HLA-A*23:01 = test: as above; settings: source organism: Orthohantavirus tulaense
HLA-B*08:01 [22] = test: IEDB peptide-MHC binding, purified MHC/competitive/fluorescence; filed as Kd, often an IC50 or EC50 that approximates it; ≥ and ≤ were set here for values at or beyond the usual limits of such assays; settings: source organism: Shigella flexneri 5 str. 8401
[23] = source organism: Escherichia coli
[24] = source organism: Orthohantavirus tulaense
[25] = source organism: Shigella flexneri 5 str. 8401

Sequence: EEISSIISL
pKd (HLA-B*40:01; source organism: Bacillus anthracis str. A2012): 8.64

pKd (HLA-A*03:01 [1]): ≤ 4.70
pKd (HLA-A*26:01; source organism: Homo sapiens): ≤ 4.70
pKd (HLA-A*02:01; source organism: Homo sapiens): ≤ 4.70
pKd (HLA-B*27:03; source organism: Homo sapiens): ≤ 4.70
pKd (HLA-B*46:01; source organism: Homo sapiens): ≤ 4.70
pKd (HLA-B*15:17; source organism: Homo sapiens): ≤ 4.70
pKd (HLA-A*69:01; source organism: Homo sapiens): ≤ 4.70
pKd (HLA-A*02:16 [2]): ≤ 4.70
pKd (HLA-A*01:01; source organism: Homo sapiens): 6.27
pKd (HLA-A*02:12 [3]): ≤ 4.70
pKd (HLA-A*02:03 [4]): ≤ 4.70
pKd (HLA-A*02:19 [5]): ≤ 4.70
pKd (HLA-A*29:02 [6]): ≤ 4.70
pKd (HLA-A*24:03 [7]): ≤ 4.70
pKd (HLA-B*51:01; source organism: Homo sapiens): ≤ 4.70
pKd (HLA-A*02:11 [8]): ≤ 4.70
pKd (HLA-A*68:02 [9]): ≤ 4.70
pKd (HLA-B*39:01; source organism: Homo sapiens): ≤ 4.70
pKd (HLA-B*15:01 [10]; source organism: Homo sapiens): ≤ 4.70
Sequence: SSDLRSWTF

Sequence: QMKRRILSF
pKd (HLA-B*08:03): 7.02
pKd (HLA-B*08:02): 7.24
pKd (HLA-B*08:01 [11]): 8.05

Sequence: ELNITSATY
pKd (HLA-B*35:01; source organism: Mycobacterium tuberculosis variant bovis): 7.74
pKd (HLA-B*15:01 [12]): 6.34

Sequence: QATAQAAAY
pKd (HLA-B*35:01; source organism: Mycobacterium tuberculosis C): 7.84
pKd (HLA-B*15:01 [12]): 5.22

pKd (HLA-B*40:01; [23]): 6.06
pKd (HLA-B*39:01; [23]): 6.97
pKd (HLA-B*15:01 [10]; [23]): ≤ 4.70
Sequence: LQEEMAETL

Sequence: VVDALRNIY
pKd (HLA-B*57:01): ≤ 4.70
pKd (HLA-A*26:01; [24]): ≤ 4.70
pKd (HLA-A*02:01; [24]): ≤ 4.70
pKd (HLA-B*27:03; [24]): ≤ 4.70
pKd (HLA-B*46:01; [24]): ≤ 4.70
pKd (HLA-B*18:01): ≤ 4.70
pKd (HLA-B*15:17; [24]): ≤ 4.70
pKd (HLA-A*69:01; [24]): ≤ 4.70
pKd (HLA-A*01:01; [24]): 8.20
pKd (HLA-B*51:01; [24]): ≤ 4.70
pKd (HLA-B*39:01; [24]): ≤ 4.70
pKd (HLA-A*03:01 [13]): ≤ 4.70
pKd (HLA-A*02:16 [14]): ≤ 4.70
pKd (HLA-A*02:12 [15]): ≤ 4.70
pKd (HLA-A*02:03 [16]): ≤ 4.70
pKd (HLA-A*02:19 [17]): ≤ 4.70
pKd (HLA-A*29:02 [18]): ≤ 4.70
pKd (HLA-A*24:03 [19]): ≤ 4.70
pKd (HLA-A*02:11 [20]): ≤ 4.70
pKd (HLA-A*68:02 [21]): ≤ 4.70
pKd (HLA-A*23:01): ≤ 4.70

Sequence: REWSGLNYL
pKd (HLA-B*40:01; source organism: Salmonella enterica subsp. enterica serovar Typhi): 8.48

Sequence: LPRRLQLLF
pKd (HLA-B*35:01; [25]): 8.54
pKd (HLA-B*08:01 [22]): 5.40
pKd (HLA-B*51:01; [25]): 5.58
